{"source": "paper PMC5814829", "experiment_in_all_cases": "fluorescence anisotropy", "key": {"ScPif1p DM": {"biological_target": "T1, ScPif1p DM (Saccharomyces cerevisiae, UniProt P07271 237-780, E242A;K273A;R281A)", "T1 sequence": "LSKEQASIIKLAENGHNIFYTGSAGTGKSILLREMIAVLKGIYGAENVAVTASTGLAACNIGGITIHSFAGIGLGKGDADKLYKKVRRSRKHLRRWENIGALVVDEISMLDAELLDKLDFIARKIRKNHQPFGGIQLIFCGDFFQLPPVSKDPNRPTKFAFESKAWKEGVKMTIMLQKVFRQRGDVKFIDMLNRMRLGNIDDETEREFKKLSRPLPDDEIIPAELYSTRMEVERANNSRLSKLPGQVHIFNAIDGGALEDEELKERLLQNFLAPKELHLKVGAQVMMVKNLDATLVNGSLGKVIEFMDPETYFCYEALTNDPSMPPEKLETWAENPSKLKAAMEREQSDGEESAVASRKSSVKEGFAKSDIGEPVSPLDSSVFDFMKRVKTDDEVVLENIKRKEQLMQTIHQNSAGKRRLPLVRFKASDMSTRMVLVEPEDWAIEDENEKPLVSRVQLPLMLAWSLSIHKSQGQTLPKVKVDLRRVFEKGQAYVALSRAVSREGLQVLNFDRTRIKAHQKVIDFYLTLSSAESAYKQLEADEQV"}, "ScPif1p R594A/K595A": {"biological_target": "T2, ScPif1p R594A/K595A (Saccharomyces cerevisiae, UniProt P07271 237-780, R594A;K595A)", "T2 sequence": "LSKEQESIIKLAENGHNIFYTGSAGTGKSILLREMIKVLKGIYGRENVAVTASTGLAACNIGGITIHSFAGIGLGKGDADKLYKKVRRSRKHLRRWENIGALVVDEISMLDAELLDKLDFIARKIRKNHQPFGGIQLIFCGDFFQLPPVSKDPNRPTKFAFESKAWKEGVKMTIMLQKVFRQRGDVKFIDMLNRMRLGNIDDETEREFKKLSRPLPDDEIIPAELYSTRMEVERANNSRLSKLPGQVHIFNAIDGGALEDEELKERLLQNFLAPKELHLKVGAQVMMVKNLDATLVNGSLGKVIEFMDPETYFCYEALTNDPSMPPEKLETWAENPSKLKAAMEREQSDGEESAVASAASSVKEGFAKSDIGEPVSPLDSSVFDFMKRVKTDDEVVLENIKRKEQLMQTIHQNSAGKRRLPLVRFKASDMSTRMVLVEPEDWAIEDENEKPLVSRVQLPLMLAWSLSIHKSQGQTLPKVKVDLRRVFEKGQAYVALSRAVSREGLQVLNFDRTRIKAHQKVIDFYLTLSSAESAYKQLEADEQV"}, "ScPif1p R323A": {"biological_target": "T3, ScPif1p R323A (Saccharomyces cerevisiae, UniProt P07271 237-780, R323A)", "T3 sequence": "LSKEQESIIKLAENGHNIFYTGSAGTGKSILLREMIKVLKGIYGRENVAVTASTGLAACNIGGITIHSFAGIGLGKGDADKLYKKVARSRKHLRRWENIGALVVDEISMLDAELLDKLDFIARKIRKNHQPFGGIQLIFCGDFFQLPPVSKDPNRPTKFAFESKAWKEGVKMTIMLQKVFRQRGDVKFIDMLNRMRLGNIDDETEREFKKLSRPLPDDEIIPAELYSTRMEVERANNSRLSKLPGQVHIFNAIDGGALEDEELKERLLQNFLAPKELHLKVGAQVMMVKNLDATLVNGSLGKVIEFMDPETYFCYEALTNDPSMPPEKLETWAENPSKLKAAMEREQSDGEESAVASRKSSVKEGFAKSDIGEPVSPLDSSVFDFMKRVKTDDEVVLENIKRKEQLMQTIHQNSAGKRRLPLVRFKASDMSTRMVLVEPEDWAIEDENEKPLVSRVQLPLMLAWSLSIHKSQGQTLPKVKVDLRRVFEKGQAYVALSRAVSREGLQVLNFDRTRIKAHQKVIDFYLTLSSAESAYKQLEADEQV"}, "ScPif1p R324N": {"biological_target": "T4, ScPif1p R324N (Saccharomyces cerevisiae, UniProt P07271 237-780, R324N)", "T4 sequence": "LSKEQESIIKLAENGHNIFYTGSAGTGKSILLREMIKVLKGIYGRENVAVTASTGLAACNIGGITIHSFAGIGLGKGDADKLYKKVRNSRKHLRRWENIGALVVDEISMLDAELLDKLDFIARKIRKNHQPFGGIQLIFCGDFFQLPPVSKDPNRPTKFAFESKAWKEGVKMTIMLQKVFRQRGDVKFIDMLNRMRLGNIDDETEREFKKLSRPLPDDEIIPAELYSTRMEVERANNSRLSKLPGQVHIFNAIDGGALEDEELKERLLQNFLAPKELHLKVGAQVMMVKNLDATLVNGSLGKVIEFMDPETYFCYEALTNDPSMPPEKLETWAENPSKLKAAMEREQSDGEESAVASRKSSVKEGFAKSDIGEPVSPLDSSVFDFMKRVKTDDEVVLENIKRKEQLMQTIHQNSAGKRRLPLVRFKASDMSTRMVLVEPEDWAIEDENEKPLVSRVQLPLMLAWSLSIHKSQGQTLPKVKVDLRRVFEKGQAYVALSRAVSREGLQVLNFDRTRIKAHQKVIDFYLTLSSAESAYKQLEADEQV"}}, "data": [{"binder": "dsDNA16bp (dsDNA) DNA 1: CTCTGCTCGACGGATT DNA 2: AATCCGTCGAGCAGAG", "values": [{"measurement": "Kd", "setting": "ScPif1p DM", "result": "95.5 ± 8.5", "unit": "nM"}, {"measurement": "Kd", "setting": "ScPif1p R594A/K595A", "result": "78.9 ± 9.3", "unit": "nM"}, {"measurement": "Kd", "setting": "ScPif1p R323A", "result": "100 ± 5.1", "unit": "nM"}, {"measurement": "Kd", "setting": "ScPif1p R324N", "result": "57.9 ± 1.1", "unit": "nM"}]}, {"binder": "GTGTGTGTGGTG (ssDNA)", "note": "[GR12]", "values": [{"measurement": "Kd", "setting": "ScPif1p DM", "result": "13.4 ± 0.8", "unit": "nM"}, {"measurement": "Kd", "setting": "ScPif1p R594A/K595A", "result": "10.5 ± 3.5", "unit": "nM"}, {"measurement": "Kd", "setting": "ScPif1p R323A", "result": "9.9 ± 0.4", "unit": "nM"}, {"measurement": "Kd", "setting": "ScPif1p R324N", "result": "11.4 ± 4.3", "unit": "nM"}]}, {"binder": "AGGGTGGGTGGGTGGGT (structured_DNA)", "note": "[F-G417]", "values": [{"measurement": "Kd", "setting": "ScPif1p DM", "result": "23.8 ± 2.5", "unit": "nM"}, {"measurement": "Kd", "setting": "ScPif1p R594A/K595A", "result": "72.9 ± 4.9", "unit": "nM"}, {"measurement": "Kd", "setting": "ScPif1p R323A", "result": "25.1 ± 1.4", "unit": "nM"}, {"measurement": "Kd", "setting": "ScPif1p R324N", "result": "87.9 ± 7.1", "unit": "nM"}]}]}
